Results taken from the DeepSol protein solubility set.

assay: soluble on expression in E. coli; label from the status in PepcDB or PDB records

| Sequence | soluble on expression in E. coli |
| --- | --- |
| MPEAWAPVRPETPPAPELLYWNAELADELGLDAGQTDKGELARLFSGADIPEGAQPIAQAYAGHQFGGLSPSLGDGRALLLGEVTDRNGQRRDIALKGSGQTPFSRRGDGKAAVGPMLRELIVGEAMQALGIPTTRALAVTTTGEPVYRERPLPGAVLTRVAASHLRVGTFQYFAIRGETAMLNKLADYTIARHYPQLAGRDGRHLALLAAVAERQAALIARWMHAGFIHGVMNTDNMALSGETIDYGPCAFMDAHYPGTVFSSIDHQGRYAYGNQPAIAQWNLARFAETLLPLISPDDPAAAVPAATEIVEGFEDLYQRRWLEQARRKLGLEGERDDDQALADDWLMLLAAHGVDHTLAWRYLADEAEGKGERLAALFPSPDALTPWLKQWHARHVPRTRRPPDIAAAMRRESPLYIPRNHLVEEALDAASERGDMGPTLKLLEALHQPFAERDGLDRYAQPAAAELAEGYRTFCGTLEHHHHHH | not soluble |
| MPEKYTTPYPARRIHSDGRAEDTEVLLAKECPVKLFLDGKQFTTLFASPLELKELAVGHLITEGILSFKEIAGVEVEGNEVHILTLKGKHPIQDESSRPAGGETKKQIFVNSDAVFDPEALFEGIAYLESDTYKLTRGTHLAALIDKKGKLAVQIVDVGRHNAVDKVVGAAFLRMIDLSQHYMLSTGRQPAYMVTKAARAGIPLVATKAMPFDSGVEAAKKANLCLVGQLRKESMLVFTNEWRVRIAAALEHHHHHH | not soluble |
| MPELPEVETSRRGIEPHLVGATILHAVVRNGRLRWPVSEEIYRLSDQPVLSVQRRAKYLLLELPEGWIIIHLGMSGSLRILPEELPPEKHDHVDLVMSNGKVLRYTDPRRFGAWLWTKELEGHNVLTHLGPEPLSDDFNGEYLHQKCAKKKTAIKPWLMDNKLVVGVGNIYASESLFAAGIHPDRLASSLSLAECELLARVIKAVLLRSIEQGGTTLKDFLQSDGKPGYFAQELQVYGRKGEPCRVCGTPIVATKHAQRATFYCRQCQK | not soluble |
| MPEQLNTRVEDCFQLAESFFKRPFKRPVVSLKLRGQKAGVAHLHENLLRFNPQLYRENTEDFLKQTVAHEVAHLIAHQLFGERIQPHGEEWQLIMRGVYELPPNRCHTYDVKRRSVTRYIYRCPCAESDFPFSAQRHKLVAQGRRYLCRRCRQTLVYSGETRVELEHHHHHH | not soluble |
| MPERFVEMLREENGKIIVRIPGETARYANLEGKEGEYLLVDLVKVFDPHLKLPTHSIGEKAICRTVTFRDNRGYEHLGLEIPQELVNDYGMKAGEYLEAVIEHAILRDKIAAVYPNLEILNQYPYWWRKISQ | not soluble |
| MPGAMESPNESEDVSKTFFKLCDGLRLGELVTTEHFRLSDVMSAIELGEPKMDVGVGSKHIKTLKEAISGGLYADDYPFQLAIMDSTLAMVVAWLEGSALGSTVWTNVLLSNVTFVKHPVFHPFASGVNLFIRNAHALINSVGNLEELPEDFNPQMLFSHQRWAPRRVVVQLMREQVTLLGTTGRKWRESAFSKQAYDICCAVASRLEMFIMLLEIIGLLVAPEIEDPNFDHKVHLGDFYVHEKEYEGAEENSDEKSEESTSDPTPSSEAKSETTEKKEQKSNDEATDETDQNDDENVGDDEDEDDMKQFKPNFGFASILAERLCKVTKAYAETVKLGRRAPDNIDGDGDYLWLGAYEPKTCIRMIPACFPRKIKVPSRQEAADWWVKCAERIYHLCIVTPKTSKDLNYLFYFARTFGQNACVFTRSLLQICMFPVDNHLCGDENRSIADAVEYSLSNCFCPQILDRVSPVYKDQTAQSLYVLFLNHMSKLAITVYGSFGCNLSRQRDRLEMAIEDLGQIHSYAGRLEERTDEVLLSGKMVTAKEQNYSYHSVATFVFHNLLAIINHYFELGFRMDLYVPYEFPYIYWFIGSVQAHWMRTTLERSQEIQLNVYQANPLRETKNKKLWEERCKLGEELKRRVAAHQFSVLNQIAISMISDGVVRLTVVLIRKGIIKMPKGGDDAEKLRFERRFEPFDSLGPPVRVDYERFKSDSGIDQMYEDKIETLIDQAQKSFNEAREHLEKIDNSVEQNREMMQLIHVAKSNIIACRVLKLDLTDRNVVWSFSEEIPMFPCLKISKK | not soluble |
| MPGQPFGVYLHVPFCLTRCGYCDFNTYTPAQLGGVSPDRWLLALRAELELAAAKLDAPTVHTVYVGGGTPSLLGGERLATLLDMVRDHFVLAPDAEVSTEANPESTWPEFFATIRAAGYTRVSLGMQSVAPRVLATLDRVHSPGRAAAAATEAIAEGFTHVNLDLIYGTPGESDDDLVRSVDAAVQAGVDHVSAYALVVEHGTALARRVRRGELAAPDDDVLAHRYELVDARLSAAGFAWYEVSNWCRPGGECRHNLGYWDGGQWWGAGPGAHGYIGVTRWWNVKHPNTYAEILAGATLPVAGFEQLGADALHTEDVLLKVRLRQGLPLARLGAAERERAEAVLADGLLDYHGDRLVLTGRGRLLADAVVRTLLG | not soluble |
| MPHTSSDVADFKEVRHIRGDINLKPFIAIWEVTRACGLVCQHCRADAQHEPHPEQLTTEQGKQLLSDLASYERPKPLVVLTGGDPFERQDLEELVDYGTSLGLNVSLSPSVTPRLTPERIHRLYELGGKAMSMSLDGATAETHDAFRGFSGTFDTTVKRAADILQAGFRLQINSTLTKSNIREAPALLKTVMGMGAKMWYVFFLVPTGRGAALNALNPQEREDVLHWLADVSDRIAIKTTEAPQYRRVVIQQRLRKEGQLDKYQGGELYRYLTQKTTELLGAHPVQPRRPRPPMAVNSGSGFVFIDHIGDVYPSGFLPIHCGNVKQASIKTIYSQSPTFQALRDPNHWHGKCSVCEFHDVCGGSRSTAYALTGDVRASDPTCVYMPQPWLDAGHSGVED | not soluble |
| MPIPNNPGAGENAFDPVFVNDDDGYDLDSFMIPAHYKKYLTKVLVPNGVIKNRIEKLAYDIKKVYNNEEFHILCLLKGSRGFFTALLKHLSRIHNYSAVETSKPLFGEHYVRVKSYCNDQSTGTLEIVSEDLSCLKGKHVLIVEDIIDTGKTLVKFCEYLKKFEIKTVAIACLFIKRTPLWNGFKADFVGFSIPDHFVVGYSLDYNEIFRDLDHCCLVNDEGKKKYKATSL | soluble |
| MPIQRREFIAAIGTGALATTAGCAQSGEGSGQTEAETEAESGGGGQPGVAGETLTLTTTTSTYDTGLLDEIHPDFEDMYGVSVDAVAQGTGAALESARNGDSDIVMVHARGLEDDFMRNGYGINRRDLMFNDFVIVGPEDDPAGIQGMGSATEALTTIAESESQFVSRGDNSGTHTKELNLWEAAGTEPGGNWYQETGTGMGEALNIANQQGAYTLSDRGTYISQRSEIDLVILVQGPIEDGPEILANPYGIMAVNPGVHDNANYDLAMAYIGWITSPGTQDAISNYQVNGEQLFFPEAVSEDPNFQQYVPEGWSSDAGE | not soluble |
| MPIVYYDGNCIYCYNYVIWLIQHDLPRNYQFATLKGEVGQQFFKQHPEAANKNSVILQKGDCIYFESQAIIKLITALPNRTKLLGVGLWLVPKPVRNFGYRMFANNRNRMWKTTWHQPNDYEKSFFLDDNAKVKLTDLEHHHHHH | soluble |
| MPIYEYACHACGLEKEHLQKMSDAPIANCPACGSSDYVKKVSAAGFQLKGTGWYVTDFRNKNTRSDSKPKEESGKEAADTDKAAATTTTDSTTATATTASTSTTAPTVSSVD | not soluble |
| MPKNTPIIRSLLDTDLYKFTMLQVVLHQFPAAHGEYEFRCRNHPDTPLTQLKQQLETQLDLLCELRFSQDELDYLRGLRFIKSDYVDYLELFHLQRRFISVSEEGEQLAIRIKGPMVQAMFFEIFVLAIVNELYFRPLDSKAVREEGRRRLEAKLAELERFQREEAPGQRFPLLIADFGTRRRFSRDWQAHVVERLNHALPQVFRGTSNVYLARKLGITPIGTMAHEFFQAFQALGVRLRDFQKAALESWVQEYRGDLGIALTDVVGMDAFLADFDLYFAKLFDGLRHDSGDPYIWGEKAIAHYRKLRIDPATKMLTFSDGLSVDSALQLQRHFSPHIQVSFGIGTHFTNDMGLEPLQIVLKLVSCNGQPVAKLSDSPGKTMCSDETFLAYLRQVFKVPALALEHHHHHH | soluble |
| MPKPVIAIVGRPNVGKSTIFNRIVGERVSIVEDIPGVTRDRIYSAGEWLNHEFNIIDTGGIDIGDEPFLTQIRQQAEVAIDEADVIIFMTNGRDGVTAADEEVAKILYRSNKPVVLAVNKVDNPEMRSDIYDFYALGFGEPFPISGTHGLGLGDLLDEAAQHFPKIEEDGYDEDTIRFSLIGRPNVGKSSLVNALLGQERVIVSNVAGTTRDAVDTPYSKDGKDYVIIDTAGMRKKGKVYESTEKYSVLRALRAIERSDVVLVVLDGEEGIIEQDKKIAGYAHDSGRAVVIVVNKWDAVKKDEKTMKAFEENIRAHFQFLEYAPIVFLSAKTRKRTQTLIPVIDEVNESHSIRIQTNVLNDVIMDAVAMNPTPTHNGSRLKIFYATQVAVKPPTFVVFVNDPELLHFSYERFLKNRLRESFGFVGTPIHIIARARD | soluble |
| MPKSEIRKLLQEIKKQVDNPGNSSTTEIKKMASEAGIDEQTAEEIYHLLTEFYQAVEEHGGIEKYMHSNISWLKIELELLSACYQIAILEDMKVLDISEMLSLNDLRIFPKTPSQLQNTYYKLKKELIQVEDIPKNKPGRKRKTQKNTKKEKTNIFGKVVPALEHHHHHH | soluble |
| MPKVKTNRVKYPEGWELIEPTLRELDAKMREAETDSHDGKRKCETLWPIFKVSHQRSRYVYDLYYRREEISKELYEFCLDQGYADRSLIAKWKKSGYERLCCLRCIQPRDHNYGTTCVCRVPKHLREEKVVECVHCGCQGCASGD | not soluble |
| MPLAKDLLHPLPAEEKRKHKLKRLVQHPNSYFMDVKCPGCYRITTVFSHAQGVVVCAGCATILCQPTGGRAKLTEGCSFRRKPQLEHHHHHH | not soluble |
| MPLDPQIKPILERIRALSIAASPQELRRQVEEQSRLLTAAVQEPIAETRDVHIPVSGGSIRARVYFPKKAAGLPAVLYYHGGGFVFGSIETHDHICRRLSRLSDSVVVSVDYRLAPEYKFPTAVEDAYAALKWVADRADELGVDPDRIAVAGDSAGGNLAAVVSILDRNSGEKLVKKQVLIYPVVNMTGVPTASLVEFGVAETTSLPIELMVWFGRQYLKRPEEAYDFKASPLLADLGGLPPALVVTAEYDPLRDEGELYAYKMKASGSRAVAVRFAGMVHGFVSFYPFVDAGREALDLAAASIRSGLQPS | soluble |
| MPLNKLIQDGDNQDLTDERFKATFDTDALAAVFHGGEDALKRIRELRDEVTKRWHLFDALPGAHRTRAERMEDVSRKLKNLMESVGEFADFTNNLDMLVIIRDVMGIEGFPLALHNLMFVPTIQNQADDEQTEWWLMDALQGKIIGTYAQTELGHGTNLGAIETTATYDKLTEEFIIHTPTTTATKWWPGGLGTSCTHVVLVANLIIDTKNYGLHPFFVPIRDRNSYSVMSGVRVGDIGTKMGVNCVDNGFLAFDNYRIPRRNMLMKHSKVSKEGLYTAPSHPKVGYTTMLYMRSEMIYHQAYYLAMAMAISIRYSAVRRQGEIKPGTQEVQILDYQTQQYRIFPGLARCFAFNTAAATVRQMTENCIKQLSHGNSDVLADLHALSCGLKAVVTHQASQSIDQARQACGGHGYSDASYLPTLYTCSVGACTYEGENMVMLLQLSKYLMKAAAKAEKGEEMAPLVAYLVKPDITETNDKFAKMLSHFEHIARHRVMHAYRQMIEEEKQGIERDYAFANHSVDWTKAARAHTKLFIARGFVKSVQEVSDEAVHDVLTTLAELYLSYELIEMSADLTANGYLSESDVQQIRHQIYDSMRKTRRNAVSIVDSFDICDRELRSVLGRRDGHVYENLYKWAQMSPLNERNLPHVEKYLKPMTSKL | not soluble |
| MPLRPQRPCRAQGCRSLHRNANGYCDGHADLAAEQAKAWATRKGSGRGGRPWRRKRERILKRDQYLCRCDDCAQLGRIREAHEVDHIVALAHGGTDDDDNLRAINRDCHKAKTQRESKTIKKLEHHHHHH | not soluble |
